Data: US20100056445A1, “ADIPONECTIN FOR THE TREATMENT AND DIAGNOSIS OF ALBUMINURIA” (THOMAS JEFFERSON UNIVERSITY, priority 2006, published 2010)
“Also recorded” adds a separate entry of the source.

What was measured:
[1] = system: AMPK; assay: Glomerular AMPK activity (p-AMPKα immunostain) in adiponectin KO mouse kidney; type: in vivo; conditions: adiponectin KO mice, adiponectin (gAd) treatment
Description: Immunohistochemistry: Immunocytochemistry was performed as described previously (30). Differentiated podocytes seeded on coverslips were serum-Starved overnight and globular adiponectin was added. After 24 hours of adiponectin introduction, cells were fixed in 3.7% paraformaldehyde. Incubation with primary antibody p-AMPKα at 1:50 dilution (Cell Signaling Technology) was performed in blocking solution at 4° C. overnight Cells were then incubated with secondary anti rabbit IgG conjugated to an immunofluorescent dye (Alexa 594, Invitrogen, Carisbad, Calif.) for 30 minutes at room temperature. Nuclear stain was performed with Hoechst 33342 (Invitrogen). Fluorescence pictures were obtained using confocal laser fluorescence microscope (LSM-510, Carl Zeiss, Jena, Germany). Immunostaining of paraffin-embedded mouse kidney was performed as described previously (26) with p-AMPKα (Thr172) rabbit monoclonal antibody (31). Quantitation of p-AMPKα positive cells was performed on 50 glomeruli from 4 mice in each group.
Immunohistochemistry: Immunocytochemistry was performed as described previously (30). […] Fluorescence pictures were obtained using confocal laser fluorescence microscope (LSM-510, Carl Zeiss, Jena, Germany). […] Quantitation of p-AMPKa positive cells was performed on 50 glomeruli from 4 mice in each group. […] Images were captured by confocal laser fluorescence microscope.

[2] = system: Nox4; assay: Nox4 protein in cultured podocytes (immunoblot, confocal); type: cell-based, mouse; conditions: adiponectin for 16 h
[3] = system: Adiponectin KO (Ad−/−) mice; assay: Podocyte foot process effacement by electron microscopy in adiponectin KO mice; type: in vivo, mouse; conditions: gAd treatment, EM
Description: Adiponectin administration and animal studies: The mice were treated with 25 μg of recombinant human globular domain adiponectin (gAd; PepROTech, Rocky Hill, N.J.) subcutaneously twice daily for 10 consecutive days. The control animals were given PBS alone. 24-hour urines from each mouse were collected twice: one week before the injections and on the last day of the injections. The urine albumin and creatinine were measured with a mouse Albuwell ELISA kit and a Creatinine Companion kit (Exocell, Philadelphia, Pa.) (25,26). The mice were sacrificed five hours after the final gAd injection under anesthesia. Portions of kidney cortex were fixed in buffered formalin and embedded in paraffin. […]
Interventional animal studies: The mice were treated with 25 μg of recombinant human globular domain adiponectin gAd (PepROTech, Rocky Hill, N.J.), administered 25 μg/mouse twice a day for 10 consecutive days or full-length adiponectin (fAd) was administered using an AAV vector (AAV2/8 CMV fAd virus 4×1011 GC/mouse for 10 days). […] The urine albumin and creatinine were measured with a mouse Albuwell ELISA kit and a Creatinine Companion kit (Exocell, Philadelphia, Pa.) (26, 25). As an index of oxidant stress timed urine collections were also analyzed for hydrogen peroxide by Amplex red assay (Invitrogen/Molecular Probes, Carlsbad, Calif.) following the manufacturer's protocol. […]

B1: adiponectin: 30 kDa adipocyte-secreted protein; in the first series of tests the recombinant globular domain was used, later gAd or fAd (protein, UniProt Q15848 19-244, looked up)
Adiponectin: ETTTQGPGVLLPLPKGACTGWMAGIPGHPGHNGAPGRDGRDGTPGEKGEKGDPGLIGPKGDIGETGVPGAEGPRGFPGIQGRKGEPGEGAYVYRSAFSVGLETYVTIPNMPIRFTKIFYNQQNHYDGSTGKFHCNIPGLYYFAYHITVYMKDVKVSLFKKDKAMLFTYDQYQENNVDQASGSVLLHLEVGDQVWLQVYGEGERNGLYADNDNDSTFTGFLLYHDTN
With B1 the “AMPK activity in glomerular podocytes (p-AMPKα positive cells per glomerulus)” value [1] was “improved; also recorded: increased”, the “Podocyte Nox4 protein” value [2] was “sufficient to suppress podocyte Nox4” and the “Podocyte foot process fusion / effacement” value [3] was “improved podocyte foot process effacement; also recorded: restored podocyte foot processes”.
